Results taken from US20240043489A1, “Cytokine Prodrugs Comprising a Cleavable Linker” (Trutino Biosciences Inc., priority 2020, published 2024).
Read-outs that look alike come from different tables or passages of the source.

How the values were obtained:
Collagen type I = Collagen type I (Homo sapiens, UniProt P02452+P08123); details: binds to Collagen type I; Note 1 of Table 2; cited from earlier work
heparin = details: Note 1, cited from earlier work
HEK-Blue™ IL-2 cells = assay: HEK-Blue IL2 reporter assay (SEAP, OD630); assay type: cell-based; details: Table 5C
Procedure: Recombinant MMP9 and/or MMP2 (R&D Systems) was first activated with p-aminophenylmercuric acetate and this activated protease or equivalent amount of activating solution without the protease was used to digest or mock digest the fusion protein for 1 hr, 2 hr, 4 hr and overnight (18-22 hr) at 37 C. Cleavage assays are set up in TCNB buffer: 50 mM Tris, 10 mM CaCl2), 150 mM NaCl, 0.05% Brij-35 (w/v), pH 7.5. Digested protein was aliquoted and stored at −80° C. prior to testing. Aliquots of digests were subsequently analyzed by SDS-PAGE followed by Western blotting to evaluate the extent of cleavage. Digests were also assessed in functional assays such as CTLL-2 proliferation and HEK-Blue Interleukin reporter assays. As shown in FIGS. 2A-E, essentially complete cleavage by MMP9 protease of the fusion proteins with functional site is seen after overnight incubation. In contrast, proteins containing a scrambled MMP cleavage site are not cut (FIG. 2E). HEK-Blue™ IL-2 cells are specifically designed to monitor the activation of the JAK-STAT pathway induced by IL-2. Indeed, stimulation with human or murine IL-2 triggers the JAK/STAT5 pathway and induces secreted embryonic alkaline phosphatase (SEAP) production. SEAP can be readily monitored when using QUANTI-Blue™, a SEAP detection medium. These cells respond to human and murine IL-2. For the HEK Blue assay, untreated and digested samples are titrated and added to 50 000 HEK Blue cells per well in 200 ul medium in a 96-well plate and incubated at 37C in 5% CO2 for 20-24 hr. The following day, levels of SEAP are measured by adding 20 uL of cell supernatant to QuantiBlue reagent, followed by 1-3 h incubation at 37C and reading absorbance at 630 nm. FIGS. 3C-J, 3Q-Y and Table 5B-5C show results obtained from IL2 fusion proteins tested in HEK Blue IL2 assay.

B16F10 melanoma = assay: In vivo efficacy of retention linker IL-2 drugs in B16F10 syngeneic model (Example 17); parameters: species or system mice
Procedure: In a first efficacy study, C57BL/6 mice were subcutaneously inoculated with B16F10 melanoma cells and when the average tumor volume reached on average 70-90 mm^3, animals were randomized into 5 groups based on tumor volumes (n=6 mice per treatment group). Mice were dosed intravenously every 3 days (Q3D) for a total of 5 doses according to following design:
In a second efficacy study in the same model, C57BL/6 mice were subcutaneously inoculated with B16F10 melanoma cells and when the average tumor volume reached on average 70-90 mm^3, animals were randomized into 5 groups based on tumor volumes (n=6 mice per treatment group). Mice were dosed intravenously every 3 days (Q3D) for a total of 5 doses according to following design:
On Day 20, mice received an additional dose of drug, animals were sacrificed 24 hrs later and tissues and blood (processed to serum) were collected and stored at −80C for further testing. […] This is most likely due to the higher levels of both circulating drugs in serum and resident drug in TME, which can exert prolonged anti-tumor activity even after an extended dosing holiday.

fibronectin = fibronectin (Homo sapiens, UniProt P02751); assay: IL-2 fusion protein plate binding assay to fibronectin
Procedure: A similar plate-based assay was developed to interrogate binding of IL-2 fusion variants to fibronectin. 96-well plates were coated with 4 ug/mL of fibronectin (Sigma) or control BSA for 18-22 h at room temperature on shaker (350 rpm). After washing, wells are blocked with protein-free blocking buffer (Pierce) for 90 min, then fusion proteins are titrated in blocking buffer-0.1% Tween 20 pH 7.5 and/or pH 6 and added for 1 hr at room temperature with shaking. After washing, an anti-mouse IL-2 biotin-labelled detection antibody (JES6-5H4, ThermoFisher) is added and binding is detected using Ultra Streptavidin HRP (ThermoFisher). The plate was developed by adding the chromogenic tetramethylbenzidine substrate (Ultra TMB, ThermoFisher). The reaction is stopped by addition of 0.5M H2SO4 and the absorbance is read at 450-650 nm.

[1] = cleaved with MMP9, read-out: +MMP EC50

Collagen type I, sequence (P02452 162-1218 limits assumed): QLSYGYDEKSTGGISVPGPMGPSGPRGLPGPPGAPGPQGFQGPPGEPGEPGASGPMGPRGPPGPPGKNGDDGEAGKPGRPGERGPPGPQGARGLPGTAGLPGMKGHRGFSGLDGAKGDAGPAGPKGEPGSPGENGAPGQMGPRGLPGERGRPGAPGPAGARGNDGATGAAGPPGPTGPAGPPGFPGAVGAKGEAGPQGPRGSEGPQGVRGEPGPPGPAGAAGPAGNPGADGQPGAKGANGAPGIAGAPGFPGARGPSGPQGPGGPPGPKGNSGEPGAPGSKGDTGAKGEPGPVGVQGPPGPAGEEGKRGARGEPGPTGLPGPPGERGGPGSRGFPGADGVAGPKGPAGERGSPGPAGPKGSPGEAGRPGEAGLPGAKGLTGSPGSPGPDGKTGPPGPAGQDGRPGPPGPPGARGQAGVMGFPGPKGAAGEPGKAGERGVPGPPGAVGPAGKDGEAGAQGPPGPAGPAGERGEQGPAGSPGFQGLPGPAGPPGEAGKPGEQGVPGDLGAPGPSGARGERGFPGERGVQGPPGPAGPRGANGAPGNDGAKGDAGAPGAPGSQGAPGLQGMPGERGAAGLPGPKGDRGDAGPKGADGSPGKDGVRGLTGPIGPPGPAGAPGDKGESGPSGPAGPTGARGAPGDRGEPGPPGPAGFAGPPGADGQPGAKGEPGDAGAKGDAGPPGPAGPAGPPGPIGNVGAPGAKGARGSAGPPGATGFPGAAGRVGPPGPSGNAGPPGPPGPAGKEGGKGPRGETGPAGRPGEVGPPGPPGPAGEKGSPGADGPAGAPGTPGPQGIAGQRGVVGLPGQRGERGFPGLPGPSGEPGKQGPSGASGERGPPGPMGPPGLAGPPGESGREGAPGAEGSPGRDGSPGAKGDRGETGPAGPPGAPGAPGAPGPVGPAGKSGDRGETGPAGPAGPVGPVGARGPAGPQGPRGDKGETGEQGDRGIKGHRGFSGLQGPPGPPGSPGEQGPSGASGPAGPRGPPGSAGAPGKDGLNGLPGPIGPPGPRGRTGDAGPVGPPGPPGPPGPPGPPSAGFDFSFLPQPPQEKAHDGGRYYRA
Collagen type I, sequence (P08123 80-1119 limits assumed): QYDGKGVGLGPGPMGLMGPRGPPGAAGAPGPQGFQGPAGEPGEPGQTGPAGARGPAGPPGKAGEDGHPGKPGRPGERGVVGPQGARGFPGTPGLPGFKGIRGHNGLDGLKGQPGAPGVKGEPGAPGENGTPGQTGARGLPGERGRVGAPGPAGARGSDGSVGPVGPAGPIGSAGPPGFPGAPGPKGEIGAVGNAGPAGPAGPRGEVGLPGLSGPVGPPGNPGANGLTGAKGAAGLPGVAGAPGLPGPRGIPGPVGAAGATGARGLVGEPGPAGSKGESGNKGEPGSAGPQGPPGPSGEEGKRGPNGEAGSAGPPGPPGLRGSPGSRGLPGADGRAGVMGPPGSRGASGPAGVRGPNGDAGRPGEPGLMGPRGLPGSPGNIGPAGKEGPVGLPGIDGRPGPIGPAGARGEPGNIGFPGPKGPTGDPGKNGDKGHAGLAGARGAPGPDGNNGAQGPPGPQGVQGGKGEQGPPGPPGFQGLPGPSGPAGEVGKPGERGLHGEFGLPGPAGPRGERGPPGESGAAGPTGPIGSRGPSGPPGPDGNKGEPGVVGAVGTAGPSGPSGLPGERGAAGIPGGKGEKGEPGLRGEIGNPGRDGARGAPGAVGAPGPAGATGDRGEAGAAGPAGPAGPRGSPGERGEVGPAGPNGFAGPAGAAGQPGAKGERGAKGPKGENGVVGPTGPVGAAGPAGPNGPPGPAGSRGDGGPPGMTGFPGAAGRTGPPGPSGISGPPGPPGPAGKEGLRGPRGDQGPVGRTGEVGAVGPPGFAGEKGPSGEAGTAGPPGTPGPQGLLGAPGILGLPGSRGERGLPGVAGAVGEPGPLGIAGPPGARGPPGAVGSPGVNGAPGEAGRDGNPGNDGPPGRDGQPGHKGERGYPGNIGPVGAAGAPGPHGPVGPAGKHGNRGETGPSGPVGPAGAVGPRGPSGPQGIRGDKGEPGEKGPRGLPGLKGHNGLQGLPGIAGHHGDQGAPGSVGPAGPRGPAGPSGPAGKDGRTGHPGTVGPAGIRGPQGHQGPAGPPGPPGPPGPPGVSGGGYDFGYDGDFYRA
fibronectin, sequence (P02751 32-2477, species assumed): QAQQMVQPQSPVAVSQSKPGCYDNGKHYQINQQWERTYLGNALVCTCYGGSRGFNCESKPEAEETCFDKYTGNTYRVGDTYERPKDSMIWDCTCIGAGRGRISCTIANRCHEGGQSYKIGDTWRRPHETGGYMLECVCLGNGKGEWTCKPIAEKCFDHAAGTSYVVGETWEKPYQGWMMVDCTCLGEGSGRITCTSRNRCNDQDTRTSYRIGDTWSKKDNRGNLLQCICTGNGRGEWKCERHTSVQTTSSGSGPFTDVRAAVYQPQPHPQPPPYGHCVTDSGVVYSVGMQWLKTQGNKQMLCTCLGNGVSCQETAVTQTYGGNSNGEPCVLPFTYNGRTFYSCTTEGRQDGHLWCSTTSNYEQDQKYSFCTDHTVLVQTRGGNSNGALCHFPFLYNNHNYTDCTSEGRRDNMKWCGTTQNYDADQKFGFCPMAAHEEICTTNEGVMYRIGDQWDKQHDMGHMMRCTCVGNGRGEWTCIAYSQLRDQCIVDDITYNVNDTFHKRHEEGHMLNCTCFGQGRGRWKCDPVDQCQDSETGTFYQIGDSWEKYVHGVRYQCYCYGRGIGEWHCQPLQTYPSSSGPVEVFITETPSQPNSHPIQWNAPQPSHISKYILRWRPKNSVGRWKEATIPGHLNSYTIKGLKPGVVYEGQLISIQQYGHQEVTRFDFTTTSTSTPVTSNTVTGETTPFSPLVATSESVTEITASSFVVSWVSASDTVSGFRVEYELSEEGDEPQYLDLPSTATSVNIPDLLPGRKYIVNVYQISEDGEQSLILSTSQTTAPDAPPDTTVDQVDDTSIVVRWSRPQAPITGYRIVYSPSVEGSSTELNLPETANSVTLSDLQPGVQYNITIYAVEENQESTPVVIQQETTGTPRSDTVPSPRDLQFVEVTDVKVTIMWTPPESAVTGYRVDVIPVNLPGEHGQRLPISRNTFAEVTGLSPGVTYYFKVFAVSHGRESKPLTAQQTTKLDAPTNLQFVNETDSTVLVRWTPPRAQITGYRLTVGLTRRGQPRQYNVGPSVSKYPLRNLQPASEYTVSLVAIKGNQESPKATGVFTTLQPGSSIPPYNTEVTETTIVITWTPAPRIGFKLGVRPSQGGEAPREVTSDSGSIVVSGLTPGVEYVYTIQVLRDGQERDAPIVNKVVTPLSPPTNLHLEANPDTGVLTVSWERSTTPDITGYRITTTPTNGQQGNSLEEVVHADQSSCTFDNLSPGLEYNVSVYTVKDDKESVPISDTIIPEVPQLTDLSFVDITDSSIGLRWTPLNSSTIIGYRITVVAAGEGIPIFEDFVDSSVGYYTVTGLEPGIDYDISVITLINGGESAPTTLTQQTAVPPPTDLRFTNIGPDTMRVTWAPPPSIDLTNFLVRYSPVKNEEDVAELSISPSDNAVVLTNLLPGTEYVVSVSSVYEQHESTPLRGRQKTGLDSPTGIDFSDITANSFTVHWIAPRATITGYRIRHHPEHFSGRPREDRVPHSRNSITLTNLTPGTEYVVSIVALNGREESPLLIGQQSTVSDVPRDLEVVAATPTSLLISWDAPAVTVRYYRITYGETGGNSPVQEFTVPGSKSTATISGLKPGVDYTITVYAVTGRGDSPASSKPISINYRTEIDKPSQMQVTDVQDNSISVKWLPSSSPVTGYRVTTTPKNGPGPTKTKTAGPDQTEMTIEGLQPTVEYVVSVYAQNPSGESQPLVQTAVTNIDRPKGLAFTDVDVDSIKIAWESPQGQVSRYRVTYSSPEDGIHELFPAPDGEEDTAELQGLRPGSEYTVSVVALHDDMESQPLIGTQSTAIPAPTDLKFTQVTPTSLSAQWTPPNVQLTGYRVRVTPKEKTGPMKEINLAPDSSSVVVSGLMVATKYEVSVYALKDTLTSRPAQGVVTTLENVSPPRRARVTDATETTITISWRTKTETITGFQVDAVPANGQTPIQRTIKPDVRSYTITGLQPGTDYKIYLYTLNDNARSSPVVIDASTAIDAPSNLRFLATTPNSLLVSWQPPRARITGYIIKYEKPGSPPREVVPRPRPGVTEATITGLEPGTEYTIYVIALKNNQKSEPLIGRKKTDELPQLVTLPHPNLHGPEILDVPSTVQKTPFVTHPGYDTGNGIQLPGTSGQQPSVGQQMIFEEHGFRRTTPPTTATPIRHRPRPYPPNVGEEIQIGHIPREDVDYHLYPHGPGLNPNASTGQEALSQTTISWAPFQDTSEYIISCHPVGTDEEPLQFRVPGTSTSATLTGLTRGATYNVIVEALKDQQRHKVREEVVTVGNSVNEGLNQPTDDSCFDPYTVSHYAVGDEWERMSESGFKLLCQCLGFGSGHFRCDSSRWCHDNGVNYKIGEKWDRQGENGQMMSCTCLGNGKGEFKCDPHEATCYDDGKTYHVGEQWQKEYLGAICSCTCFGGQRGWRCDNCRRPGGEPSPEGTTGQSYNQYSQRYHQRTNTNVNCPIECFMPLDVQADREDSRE

| Molecule | Kd (Collagen type I) [nM] | affinity of binding to heparin at low pH (heparin) | also measured |
| --- | --- | --- | --- |
| 197 (HVWMQAPGGGK) [Construct 197] | 61000 |  |  |
| 644 (KHAHL) [Construct 644] |  | binds to heparin at low pH (lower affinity) |  |
| 647 (HKGQHR) [Construct 647] |  | binds to heparin at low pH (lower affinity) |  |
| 646 (TTEPSEEHNHHKHHDK) [Construct 646] |  | binds to heparin at low pH (lower affinity) |  |
| 192 (LRELHLNNN) [Construct 192] | 170 |  |  |
| 648 (KVEHRVKKRPPTWRHNVRAKYT) [Construct 648] |  |  | binding to heparin, pH dependence (heparin): binds to heparin at low pH |
| 196 (WREPSFCALS) [Construct 196] | 100000 |  |  |
| 645 (TTEPSEEHNHHK) [Construct 645] |  | binds to heparin at low pH (lower affinity) |  |
| 191 (MIVIELGTNPLKSSGIENGAFQGMKK) [Construct 191] | 394 |  |  |
| 189 (RRANAALKAGELYKSILYGC) [Construct 189] | 860 |  |  |
| 642 (KHAHLKKQVSDHIAVY) [Construct 642] |  | binds to heparin at low pH (high affinity) |  |
| 649 (GGKVEHRVKKRPPTWRHNVRAKYT) [Construct 649] |  |  | binding to heparin, pH dependence (heparin): binds to heparin at low pH |
| 195 (CPKESCNLFVLKD) [Construct 195] | 681 |  |  |
| 643 (TTEPSEEHNHHK) [Construct 643] |  | binds to heparin at low pH (low affinity) |  |
| 194 (TKKTLRT) [Construct 194] | ≤ 100000 |  |  |
| 193 (WREPSFCALS) [Construct 193] | 100000 |  |  |
| 650 (KKRPPTWRHNV) [Construct 650] |  |  | binding to heparin, pH dependence (heparin): binds to heparin at low pH |
| Construct AA: SEQ ID NO 811: m IL2-SGG-FHRRIKA-MMPcs1-2x(G4S)-mIL2Ra(1-215)-mu IgG1 Fc (protein) APTSSSTSSSTAEAQQQQQQQQQQQQHLEQLLMDLQELLSRMENYRNLKLPRMLTFKFYLPKQATELKDLQCLEDELGPLRHVLDLTQSKSFQLEDAENFISNIRVTVVKLKGSDNTFECQFDDESATVVDFLRRWIAFCQSIISTSPQSGGFHRRIKAGPLGVRGGGGGSGGGGSELCLYDPPEVPNATFKALSYKNGTILNCECKRGFRRLKELVYMRCLGNSWSSNCQCTSNSHDKSRKQVTAQLEHQKEQQTTTDMQKPTQSMHQENLTGHCREPPPWKHEDSKRIYHFVEGQSVHYECIPGYKALQRGPAISICKMKCGKTGWTQPQLTCVDEREHHRFLASEESQGSRNSSPESETSCPITTTDFPQPTETTAMTETFVLTMEYKGCKPCICTVPEVSSVFIFPPKPKDVLTITLTPKVTCVVVDISKDDPEVQFSWFVDDVEVHTAQTQPREEQFNSTFRSVSELPIMHQDWLNGKEFKCRVNSAAFPAPIEKTISKTKGRPKAPQVYTIPPPKEQMAKDKVSLTCMITDFFPEDITVEWQWNGQPAENYKNTQPIMDTDGSYFVYSKLNVQKSNWEAGNTFTCSVLHEGLHNHHTEKSLSHSPGK |  |  | EC50 (HEK-Blue™ IL-2 cells; [1]): 0.0109 nM; EC50 (HEK-Blue™ IL-2 cells; uncleaved, read-out: −MMP EC50): 0.442 nM |
| Construct EE: SEQ ID NO 815: m IL2-SGG-GGWSHW-MMPcs1-2x(G4S)-mIL2Ra(1-215)-mu IgG1 Fc (protein) APTSSSTSSSTAEAQQQQQQQQQQQQHLEQLLMDLQELLSRMENYRNLKLPRMLTFKFYLPKQATELKDLQCLEDELGPLRHVLDLTQSKSFQLEDAENFISNIRVTVVKLKGSDNTFECQFDDESATVVDFLRRWIAFCQSIISTSPQSGGGGWSHWGPLGVRGGGGGSGGGGSELCLYDPPEVPNATFKALSYKNGTILNCECKRGFRRLKELVYMRCLGNSWSSNCQCTSNSHDKSRKQVTAQLEHQKEQQTTTDMQKPTQSMHQENLTGHCREPPPWKHEDSKRIYHFVEGQSVHYECIPGYKALQRGPAISICKMKCGKTGWTQPQLTCVDEREHHRFLASEESQGSRNSSPESETSCPITTTDFPQPTETTAMTETFVLTMEYKGCKPCICTVPEVSSVFIFPPKPKDVLTITLTPKVTCVVVDISKDDPEVQFSWFVDDVEVHTAQTQPREEQFNSTFRSVSELPIMHQDWLNGKEFKCRVNSAAFPAPIEKTISKTKGRPKAPQVYTIPPPKEQMAKDKVSLTCMITDFFPEDITVEWQWNGQPAENYKNTQPIMDTDGSYFVYSKLNVQKSNWEAGNTFTCSVLHEGLHNHHTEKSLSHSPGK |  |  | TGI (%) D 15 (B16F10 melanoma; 10 mg/kg IV Q3D, 5 doses): 39.32%; TGI (%) D 20 (B16F10 melanoma; 10 mg/kg, 7 days following the fifth dose): 37.61%; fibronectin binding at acidic pH (fibronectin; pH 6): preferentially binds fibronectin at acidic pH; fibronectin binding at pH 7.5 (fibronectin; pH 7.5 (neutral)): no binding is observed; EC50 (HEK-Blue™ IL-2 cells; [1]): 0.0066 nM; EC50 (HEK-Blue™ IL-2 cells; uncleaved, read-out: −MMP EC50): 1.18 nM |
